Measurements as given in IntAct's records for PubMed 19162005.

B1: Regulator of cell cycle RGCC (Homo sapiens), Q9H4X1-2 (parent)
chain: MKPPAEDLSDALCEFDAVLADFASPFHERHFHYEEHLERMKRRSSASVSDSSGFSDSESADSLYRNSFSFSDEKLNSPTDSTPALLSATVTPQKAKLGDTKELEAFIADLDKTLASM

Variants of: B1
Conditions: with akt1_human AKT1, P31749
Sequence of akt1_human AKT1, P31749 (P31749 whole entry): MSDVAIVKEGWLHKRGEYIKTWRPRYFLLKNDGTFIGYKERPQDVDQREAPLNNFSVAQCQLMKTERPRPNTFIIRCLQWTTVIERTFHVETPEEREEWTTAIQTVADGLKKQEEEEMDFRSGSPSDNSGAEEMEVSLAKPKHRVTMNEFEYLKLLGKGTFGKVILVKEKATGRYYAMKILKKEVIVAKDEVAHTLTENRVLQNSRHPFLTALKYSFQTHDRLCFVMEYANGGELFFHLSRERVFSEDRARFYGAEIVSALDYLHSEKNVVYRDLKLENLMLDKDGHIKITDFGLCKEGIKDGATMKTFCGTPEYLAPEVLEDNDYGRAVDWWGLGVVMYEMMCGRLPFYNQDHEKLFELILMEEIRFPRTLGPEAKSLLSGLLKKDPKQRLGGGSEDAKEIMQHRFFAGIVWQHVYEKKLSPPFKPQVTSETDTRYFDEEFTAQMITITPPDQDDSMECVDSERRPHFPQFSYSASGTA

| effect of a mutation on the interaction | Variant |
| --- | --- |
| disrupting interaction | MKPPAEDLSDALCEFDAVLADFASPFHERHFHYEEHLERMKRRSAAAVSDSSGFSDSESADSLYRNSFSFSDEKLNSPTDSTPALLSATVTPQKAKLGDTKELEAFIADLDKTLASM [S45A;S47A] |
